According to publication doi:10.1101/2025.10.27.684804:
pKd: −log10 of the molar value.

Target: peptide containing the APP12 polyproline motif and a N-terminal TAMRA label
Test: fluorescence polarisation

pKd: > 5.70
Substance: naive fusion of bmTyr and Fyn-SH3 linked by a short glycine/serine linker (from UniProt P06241 84-141) (enzyme)
